Patent US20120122125A1 (AbbVie / Abbott, published 2012)

Key:
[1] = molecular target: T1, Chagas FP3 recombinant antigen (Trypanosoma cruzi); assay: SPR, BIAcore 2000; His6-tagged FP3 captured on anti-His4, chimeric antibody injected 0-300 nM
T1 construct: also called T. cruzi antigen FP3; not shown: His6 tag at the amino end, from the pET vector
T1 chain: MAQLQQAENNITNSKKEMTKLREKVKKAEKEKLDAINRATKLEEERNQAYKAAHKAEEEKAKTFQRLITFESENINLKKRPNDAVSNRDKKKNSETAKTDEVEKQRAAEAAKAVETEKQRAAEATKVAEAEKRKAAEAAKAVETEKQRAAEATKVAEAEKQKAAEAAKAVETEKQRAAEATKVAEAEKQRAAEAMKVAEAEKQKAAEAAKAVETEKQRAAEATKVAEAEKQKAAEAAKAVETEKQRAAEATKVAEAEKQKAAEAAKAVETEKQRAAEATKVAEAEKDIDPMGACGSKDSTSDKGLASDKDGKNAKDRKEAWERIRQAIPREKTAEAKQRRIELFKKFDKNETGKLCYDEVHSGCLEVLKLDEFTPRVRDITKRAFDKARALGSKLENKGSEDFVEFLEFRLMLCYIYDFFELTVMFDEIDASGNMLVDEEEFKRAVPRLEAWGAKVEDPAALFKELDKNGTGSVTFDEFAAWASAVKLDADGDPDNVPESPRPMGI

[2] = molecular target: T2, Chagas FP10 recombinant antigen (Trypanosoma cruzi); assay: SPR, BIAcore 2000; His6-tagged FP10 captured on anti-His4, chimeric antibody injected
T2 construct: also called T. cruzi antigen FP10
T2 chain: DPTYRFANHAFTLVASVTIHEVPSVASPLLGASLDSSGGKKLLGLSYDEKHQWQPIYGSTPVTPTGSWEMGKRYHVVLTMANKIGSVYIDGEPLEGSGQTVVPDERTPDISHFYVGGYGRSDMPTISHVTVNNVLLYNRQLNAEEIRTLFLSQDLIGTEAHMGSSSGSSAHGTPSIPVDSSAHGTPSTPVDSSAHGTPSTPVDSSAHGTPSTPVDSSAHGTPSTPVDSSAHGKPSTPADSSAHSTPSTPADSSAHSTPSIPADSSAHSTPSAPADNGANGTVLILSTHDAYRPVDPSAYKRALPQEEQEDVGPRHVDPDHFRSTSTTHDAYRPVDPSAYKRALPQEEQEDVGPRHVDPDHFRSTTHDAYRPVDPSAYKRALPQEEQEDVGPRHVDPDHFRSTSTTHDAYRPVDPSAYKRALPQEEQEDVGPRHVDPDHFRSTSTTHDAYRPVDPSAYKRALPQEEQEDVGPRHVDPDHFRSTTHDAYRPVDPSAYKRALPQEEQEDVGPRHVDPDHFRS

[3] = molecular target: T2, Chagas FP10 recombinant antigen; assay: SPR, BIAcore 2000; murine mAb captured on rabbit anti-mouse IgG, FP10 injected
[4] = molecular target: T1, Chagas FP3 recombinant antigen; assay: SPR, BIAcore 2000; murine mAb captured on rabbit anti-mouse IgG, FP3 injected 0-200 nM
[5] = molecular target: T3, Chagas FRA antigen (Trypanosoma cruzi); assay: SPR, BIAcore 2000; murine mAb captured on rabbit anti-mouse IgG, FRA injected
T3 construct: also called FRA-domain; recombinant FRA antigen
T3 chain: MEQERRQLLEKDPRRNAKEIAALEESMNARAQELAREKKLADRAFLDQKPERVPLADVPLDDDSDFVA

[6] = molecular target: Chagas TcF recombinant antigen (Trypanosoma cruzi); assay: SPR, BIAcore 2000; chimeric antibody captured on goat anti-human IgG Fc, TcF injected 0-100 nM
[7] = molecular target: T4, Pep2 antigen (Trypanosoma cruzi); assay: SPR, BIACORE; chimeric antibody from transient COS 7L expression; the antigen is not given
T4 construct: The form of Pep2 coated in the anti-Pep2 microtiter EIA is not described; also called TcF Pep2 peptide
T4 peptide: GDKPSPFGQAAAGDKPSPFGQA

[8] = molecular target: T1, Chagas FP3 recombinant antigen; assay: SPR, BIAcore 2000; His6-tagged FP3 captured on anti-His4, chimeric antibody injected
[9] = molecular target: Chagas TcF recombinant antigen (Trypanosoma cruzi); assay: SPR, BIAcore 2000; murine mAb captured on rabbit anti-mouse IgG, TcF injected 0-200 nM
[10] = molecular target: T1, Chagas FP3 recombinant antigen; assay: SPR, BIAcore 2000; murine mAb captured on rabbit anti-mouse IgG, FP3 injected
[11] = molecular target: T3, Chagas FRA antigen; assay: SPR, BIAcore 2000; murine mAb captured on rabbit anti-mouse IgG, FRA injected 0-200 nM
[12] = molecular target: Chagas recombinant antigen FP6 (Trypanosoma cruzi); assay: SPR, BIAcore 2000; murine mAb captured on rabbit anti-mouse IgG, FP6 injected 0-200 nM
[13] = molecular target: T2, Chagas FP10 recombinant antigen; assay: SPR, BIAcore 2000; His6-tagged FP10 captured on anti-His4, chimeric antibody injected 0-300 nM
[14] = molecular target: T2, Chagas FP10 recombinant antigen; assay: SPR, BIAcore 2000; murine mAb captured on rabbit anti-mouse IgG, FP10 injected 0-200 nM

B1: recombinant chimeric (mouse-human) anti-Chagas monoclonal antibody 12-392-150 (FP3) (antibody, V domains shown)
VH: DVQLVESGGGLVQPGGSRKLSCAASGFTFSVFGMHWVRQAPEKGLEWVAYISSGSTIIYYADTVKGRFTISRDNPKNTLFLQMTGLRSEDTAMYYCARPLYYDYDDYAMDYWGQGTSVTVSS
VL: YIVMSQSPSSLAVSAGEKVTMSCKSSQSLLNSRTRKNHLAWYQQKPGQSPKLLIYWASTRESGVPDRFTGSGSGTDFALTISSVQAEDLAVYFCKQSYNLYTFGAGTKLELK
notes: Mouse VH and VL of hybridoma HBFP3 joined to human IgG1 (z, non-a) and human kappa constant regions; the summary and the claims swap them; also called Chimeric Chagas Ab 12-392-150; Chagas FP3 12-392-150CHO2580-104
Kd [1]: 0.14 nM | koff [1]: 0.00038 s⁻¹ | kon [1]: 2.7e+06 M⁻¹ s⁻¹ | binding result [2]: no binding (tested: 0 to 300 nM antibody)

B2: murine anti-Chagas monoclonal antibody 12-392-150 (FP3) (antibody, V domains shown)
VH: DVQLVESGGGLVQPGGSRKLSCAASGFTFSVFGMHWVRQAPEKGLEWVAYISSGSTIIYYADTVKGRFTISRDNPKNTLFLQMTGLRSEDTAMYYCARPLYYDYDDYAMDYWGQGTSVTVSS
VL: YIVMSQSPSSLAVSAGEKVTMSCKSSQSLLNSRTRKNHLAWYQQKPGQSPKLLIYWASTRESGVPDRFTGSGSGTDFALTISSVQAEDLAVYFCKQSYNLYTFGAGTKLELK
notes: Mouse hybridoma mAb; captured by anti-mouse IgG; also called Murine Chagas Ab 12-392-150; hybrid 12-392
binding result [3]: no binding (tested: 0 to 200 nM antigen) | Kd [4]: 0.08 nM | koff [4]: 5e-05 s⁻¹ | kon [4]: 560000 M⁻¹ s⁻¹ | binding result [5]: no binding (tested: 0 to 200 nM antigen)

B3: recombinant chimeric (mouse-human) anti-Chagas monoclonal antibody 9-638-132 (Pep2 epitope in TcF and FP6) (antibody, V domains shown)
VH: QVQLQQPGAELVRPGASVKLSCKASGYTFTSYWMNWVKLRPGQGLEWIGMIDPSDSETYYDQVFKDKATLTVDKSSSTAYMHLSSLTSEDSAVYYCARWITTDSYTMDYWGQGTSVTVSS
VL: DIVMSQSPSSLAVSAGEQVTMSCKSSQSLFNSRTRKNYLAWYQQKPGQSPKLLIYWASTRESGVPDRFTGSGSGTDFTLTISSVQAEDLAVYYCKQSYNLLTFGAGTKLELK
notes: Mouse VH and VL of hybridoma HBPep2 joined to human IgG1 (z, non-a) and human kappa constant regions; the summary and the claims swap them; also called Chimeric Chagas Ab 9-638-132; Chagas Pep2 9-638-1928
Kd [6]: 4.1 nM | koff [6]: 0.017 s⁻¹ | kon [6]: 4e+06 M⁻¹ s⁻¹ | Kd [7]: ~2.6 nM | binding result [2]: no binding (tested: 0 to 300 nM antibody) | binding result [8]: no binding (tested: 0 to 300 nM antibody)

B4: murine anti-Chagas monoclonal antibody 9-638-132 (Pep2 epitope in TcF and FP6) (antibody, V domains shown)
VH: QVQLQQPGAELVRPGASVKLSCKASGYTFTSYWMNWVKLRPGQGLEWIGMIDPSDSETYYDQVFKDKATLTVDKSSSTAYMHLSSLTSEDSAVYYCARWITTDSYTMDYWGQGTSVTVSS
VL: DIVMSQSPSSLAVSAGEQVTMSCKSSQSLFNSRTRKNYLAWYQQKPGQSPKLLIYWASTRESGVPDRFTGSGSGTDFTLTISSVQAEDLAVYYCKQSYNLLTFGAGTKLELK
notes: Mouse hybridoma mAb; captured by anti-mouse IgG; also called Murine Chagas Ab 9-638-132; hybrid 9-638
Kd [9]: 5.7 nM | koff [9]: 0.012 s⁻¹ | kon [9]: 2.1e+06 M⁻¹ s⁻¹ | binding result [10]: no binding (tested: 0 to 200 nM antigen) | binding result [5]: no binding (tested: 0 to 200 nM antigen)

B5: murine anti-Chagas monoclonal antibody 8-367-171 (FRA) (antibody, V domains shown)
VH: EVQLQQSGAELVKPGASVKLSCTASGFNIKDTYMHWVKQRPEQGLEWIGRIDPANGNTKYDPKFQGKATITTDTSSNTAYLQLSSLTSEDTAVYYCATSYYGNYVAYWGHGTLVTVSA
VL: DIQMDQSPSSLSASLGDTITITCHASQNINVWLSWYQQKPGNIPKLLIYKASNLHTGVPSRFSGSGSGTGFTLTISSLQPEDIATYYCQQGQSYPLTFGSGRKLEIK
notes: Mouse hybridoma mAb; captured by anti-mouse IgG
binding result [3]: no binding (tested: 0 to 200 nM antigen) | Kd [11]: 37 nM | koff [11]: 0.13 s⁻¹ | kon [11]: 3.6e+06 M⁻¹ s⁻¹ | Kd [12]: 5.2 nM | koff [12]: 0.0079 s⁻¹ | kon [12]: 1.5e+06 M⁻¹ s⁻¹ | binding result [10]: no binding (tested: 0 to 200 nM antigen)

B6: recombinant chimeric (mouse-human) anti-Chagas monoclonal antibody 10-745-140 (FP10) (antibody, V domains shown)
VH: QVQLQQPGAELVKPGASVKMSCKASGYTFTSYWVHWVKQRPGQGLEWIGVIDPSDSYTSYNQKFKGKATLTVDTSSSTAYMQLSSLTSEDSAVYYCTRHYDFDSWYFDVWGAGTTVTVSS
VL: DVVMTQTPLSLPVSLGDQASISCRSSQSLVHSNGNTYLHWYLQKPGQSPKLLIYKVSNRFSGVPDRFSGSGSGTDFTLKISRVEAEDLGVYFCSQSTHVPPTFGGGTKLEIK
notes: Mouse VH and VL of hybridoma HBFP10 joined to human IgG1 (z, non-a) and human kappa constant regions; the summary and the claims swap them; also called Chimeric Chagas Ab 10-745-140; Chagas FP10 10-745-3796
Kd [13]: 2.9 nM | koff [13]: 0.00036 s⁻¹ | kon [13]: 120000 M⁻¹ s⁻¹ | binding result [8]: no binding (tested: 0 to 300 nM antibody)

B7: murine anti-Chagas monoclonal antibody 10-745-140 (FP10) (antibody, V domains shown)
VH: QVQLQQPGAELVKPGASVKMSCKASGYTFTSYWVHWVKQRPGQGLEWIGVIDPSDSYTSYNQKFKGKATLTVDTSSSTAYMQLSSLTSEDSAVYYCTRHYDFDSWYFDVWGAGTTVTVSS
VL: DVVMTQTPLSLPVSLGDQASISCRSSQSLVHSNGNTYLHWYLQKPGQSPKLLIYKVSNRFSGVPDRFSGSGSGTDFTLKISRVEAEDLGVYFCSQSTHVPPTFGGGTKLEIK
notes: Mouse hybridoma mAb; captured by anti-mouse IgG; also called Murine Chagas Ab 10-745-140; Chagas 10-745-140
Kd [14]: 1.9 nM | koff [14]: 0.00022 s⁻¹ | kon [14]: 110000 M⁻¹ s⁻¹
